Data as given in patent US12310324B2, “Compositions and methods for minimizing nornicotine synthesis in tobacco” (North Carolina State University, priority 2010, dated 2025).
Positions count from the first letter of the chain named. Numbers in names are those of the source. Marks after values point to notes of the source that are not given here.

Key:
[1] = tested on: CN1CCC[C@H]1c1cccnc1; assay: Nicotine demethylase assay, yeast microsomal membrane preparations incubated with [^14C]-nicotine, products resolved by thin layer chromatography; assay type: biochemical, Nicotiana tabacum; conditions: other: substrate saturation curve across a wide range of [^14C]-nicotine concentrations; microsomes from yeast strain W(R) expressing CYP82E10 cDNA
Text: (§1) To determine whether CYP82E10 functions as a nicotine demethylase gene, its cDNA was cloned into the yeast expression vector pYeDP60 and transformed into yeast strain W(R). Strain W(R) is a yeast cell line that was engineered to overexpress the yeast NADPH-dependent P450 reductase, an enzyme that serves as the direct electron donor to P450s; this system greatly enhances the detection of foreign P450 enzyme activities that are expressed in yeast (Pompon et al., 1995). Nicotine demethylase assays were conducted by incubating yeast microsomal membrane preparations with [^14C]-nicotine, and resolving the products by thin layer chromatography as described in Siminszky et al. (2005).

[2] = tested on: CYP82E10 nicotine demethylase; assay: Nicotine demethylase assay, yeast microsomal membranes with [14C]-nicotine, CYP82E10 and variants; assay type: biochemical, tobacco
Text: as §1
The nucleotide and amino acid residues mutated in these plants are also highlighted in FIG. 1. Although no truncation mutations were observed among these individuals, in several cases, mutations were identified that altered an amino acid residue within a highly conserved region of the enzyme. To determine the effects of a particular mutation on CYP82E10 enzyme activity, site-directed mutagenesis was used to introduce the specific mutations corresponding to seven of the nine mutations shown in Table 2 into the CYP82E10 cDNA within the pYeDP60 yeast expression vector. Microsomal preparations from yeast strains expressing each of the seven CYP82E10 variants were assayed in vitro for nicotine demethylase activity using both non-saturating (2.45 μM) and saturating (50 μM) concentrations of [^14C]-nicotine.

[3] = tested on: CYP82E10 nicotine demethylase; assay type: cell-based, tobacco; conditions: cultures shaken overnight with 55 μM [14C]-nicotine, methanol extract, TLC
Description: Nicotine demethylase activities of wild type and 1041 mutant CYP82E10-expressing yeast cells was also assayed in vivo.

[4] = tested on: CYP82E10 nicotine demethylase; assay: Nicotine demethylase assay, yeast microsomal membranes with [14C]-nicotine, CYP82E10 and variants; assay type: biochemical, tobacco; conditions: at the 25 μM substrate level
[5] = tested on: CYP82E5 nicotine demethylase; assay: Nicotine demethylase activity of CYP82E5 variants (method not described); assay type: biochemical, tobacco
[6] = molecular target: CYP82E4 nicotine demethylase (Nicotiana tabacum, UniProt Q38Q87, V376M)
Chain of CYP82E4 nicotine demethylase (Nicotiana tabacum, UniProt Q38Q87, V376M) (Q38Q87 whole entry V376M): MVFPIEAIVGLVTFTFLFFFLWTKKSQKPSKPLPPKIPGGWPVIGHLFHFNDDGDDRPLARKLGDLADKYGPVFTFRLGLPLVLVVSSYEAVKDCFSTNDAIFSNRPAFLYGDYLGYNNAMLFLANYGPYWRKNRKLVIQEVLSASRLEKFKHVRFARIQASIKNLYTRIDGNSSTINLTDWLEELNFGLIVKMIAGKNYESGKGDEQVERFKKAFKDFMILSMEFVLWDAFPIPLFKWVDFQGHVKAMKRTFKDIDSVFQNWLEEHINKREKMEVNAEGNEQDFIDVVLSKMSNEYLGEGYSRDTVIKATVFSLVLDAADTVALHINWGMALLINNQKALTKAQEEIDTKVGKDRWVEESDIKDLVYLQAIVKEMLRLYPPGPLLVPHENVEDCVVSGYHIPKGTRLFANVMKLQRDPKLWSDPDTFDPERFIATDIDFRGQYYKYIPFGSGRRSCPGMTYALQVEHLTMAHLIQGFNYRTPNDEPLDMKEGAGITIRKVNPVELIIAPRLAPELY

[7] = tested on: CYP82E4v2 nicotine demethylase; assay type: biochemical, tobacco; conditions: counts per minute of [14C]-nornicotine/mg microsomal protein; ± SD of two technical replications
Text: as §1
The thin layer chromatographic data for the in vitro yeast expression assays corresponding to the plant 1041 mutation are shown in FIG. 3. This particular mutation was selected for more extensive investigation. To provide additional confirmation that the Pro to Ser substitution at amino acid position 381 that defines the plant 1041 mutation is incompatible with nicotine demethylation function, this same mutation was introduced into a CYP82E4v2 cDNA that had been similarly cloned into the pYeDP60 vector. […] Whether introduced into the CYP82E10 or CYP82E4v2 enzymes, a Ser substitution for Pro at position 381 leads to the complete ablation of nicotine demethylase activity in this assay.

[8] = tested on: CYP82E4 nicotine demethylase
[9] = counts per minute of [14C]-nornicotine/mg microsomal protein, ± SD of two technical replications

Nicotiana tabacum CYP82E10 nicotine demethylase, wild type, SEQ ID NO:2 (Nicotiana tabacum)
Km [1]: 3.9 µM

B1: CYP82E10: wild type root-specific tobacco nicotine demethylase (cytochrome P450) expressed in yeast (protein, listed as Nicotiana tabacum)
chain: MVSPVEAIVGLVTLTLLFYFIRTKKSQKPSKPLPPKIPGGWPVIGHLFYFDDDSDDRPLARKLGDLADKYGPVFTFRLGLPLVLVVSSYEAIKDCFSTNDAIFSNRPAFLYGEYLGYNNAMLFLTKYGPYWRKNRKLVIQEVLCASRLEKLKHVRFGEIQTSIKNLYTRIDGNSSTINLTDWLEELNFGLIVKMIAGKNYESGKGDEQVERFRKAFKDFIILSMEFVLWDAFPIPLFKWVDFQGHVKAMKRTFKDIDSVFQNWLEEHVKKKEKMEVNAEGNEQDFIDVVLSKMSNEYLDEGYSRDTVIKATVFSLVLDAADTVALHMNWGMALLINNQHALKKAQEEIDKKVGKDRWVEESDIKDLVYLQTIVKEVLRLYPPGPLLVPHENVEDCVVSGYHIPKGTRLFANVMKLQRDPKLWSNPDKFDPERFFAADIDFRGQHYEFIPFGSGRRSCPGMTYAMQVEHLTIAHLIQGFNYKTPNDEPLDMKEGAGLTIRKVNPIEVVITPRLTPELY
CPM nornicotine at 2.45 μM [14C]-nicotine substrate [2, 9]: 2,296 ± 99 ^ CPM | CPM nornicotine at 50.0 μM [14C]-nicotine substrate [2, 9]: 15,253 ± 465 CPM | nicotine demethylase (enzyme) activity, result in words ([2]; yeast microsomes, [14C]-nicotine): very robust nicotine demethylase activity | nornicotine detected in extracts of yeast [3]: could be detected | rate of [14C]-nornicotine synthesis relative to preparations containing CYP82E4v2 [4]: nearly three times greater

B2: SEQ ID NO:33: CYP82E5 variant with stop codon for tryptophan at position 422 (protein, listed as Nicotiana tabacum)
chain: MVSPVEAIVGLVTLTLLFYFLWPKKFQIPSKPLPPKIPGGWPVIGHLFYFDDDGDDRPLARKLGDLADKYGPVFTFRLGLPLVLVVSSYEAVKDCFSTNDAIFSNRPAFLYGEYLGYSNAMLFLTKYGPYWRKNRKLVIQEVLSASRLEKLKHVRFGKIQTSIKSLYTRIDGNSSTINLTDWLEELNFGLIVKMIAGKNYESGKGDEQVERFRKAFKDFIILSMEFVLWDAFPIPLFKWVDFQGHVKAMKRTFKDIDSVFQNWLEEHVKKREKMEVNAQGNEQDFIDVVLSKMSNEYLDEGYSRDTVIKATVFSLVLDAADTVALHMNWGMALLINNQHALKKAQEEIDKKVGKERWVEESDIKDLVYLQAIVKEVLRLYPPGPLLVPHENVEDCVVSGYHIPKGTRLFANVMKLQRDPKL
modifications: CYP82E5 W422Stop Variant
inhibition of nicotine demethylase activity (knocked out) [5]: 100%

B3: CYP82E4 V376M: CYP82E4 variant with methionine for valine at position 376 (protein, listed as Nicotiana tabacum)
chain: MLSPIEAIVGLVTFTFLFFFLWTKKSQKPSKPLPPKIPGGWPVIGHLFHFNDDGDDRPLARKLGDLADKYGPVFTFRLGLPLVLVVSSYEAVKDCFSTNDAIFSNRPAFLYGDYLGYNNAMLFLANYGPYWRKNRKLVIQEVLSASRLEKFKHVRFARIQASIKNLYTRIDGNSSTINLTDWLEELNFGLIVKMIAGKNYESGKGDEQVERFKKAFKDFMILSMEFVLWDAFPIPLFKWVDFQGHVKAMKRTFKDIDSVFQNWLEEHINKREKMEVNAEGNEQDFIDVVLSKMSNEYLGEGYSRDTVIKATVFSLVLDAADTVALHINWGMALLINNQKALTKAQEEIDTKVGKDRWVEESDIKDLVYLQAIVKEMLRLYPPGPLLVPHENVEDCVVSGYHIPKGTRLFANVMKLQRDPKLWSDPDTFDPERFIATDIDFRGQYYKYIPFGSGRRSCPGMTYALQVEHLTMAHLIQGFNYRTPNDEPLDMKEGAGITIRKVNPVELIIAPRLAPELY
modifications: CYP82E4 V376M Variant
nicotine demethylase activity relative to the wild-type CYP82E4 polypeptide [6]: about 50%

B4: pYeDP60-CYPE4v2: wild type senescence-induced tobacco nicotine demethylase CYP82E4v2 expressed in yeast (protein, listed as Nicotiana tabacum)
chain: B3 chain with M376V, G459R
CPM nornicotine at 2.45 μM [14C]-nicotine substrate [7]: 1,813 ± 623^b CPM | CPM nornicotine at 50.0 μM [14C]-nicotine substrate [7]: 5,383 ± 505 CPM

B5: pYeDP60-CYPE4v2/1041: CYP82E4v2 enzyme possessing the 1041 mutation (Pro381Ser) (protein, listed as Nicotiana tabacum)
chain: B3 chain with M376V, P382S
modifications: CYP82E4 P382S Variant
CPM nornicotine at 2.45 μM [14C]-nicotine substrate [7]: Not detected | CPM nornicotine at 50.0 μM [14C]-nicotine substrate [7]: Not detected | inhibition of nicotine demethylase activity (knocked out) [8]: 100%

B6: CYP82E4 P458S: CYP82E4 variant with serine for proline at position 458 (protein, listed as Nicotiana tabacum)
chain: B3 chain with M376V, P458S
modifications: CYP82E4 P458S Variant
inhibition of nicotine demethylase activity (knocked out) [8]: 100%

B7: CYP82E5 P449L: CYP82E5 variant with leucine for proline at position 449 (protein, listed as Nicotiana tabacum)
chain: MVSPVEAIVGLVTLTLLFYFLWPKKFQIPSKPLPPKIPGGWPVIGHLFYFDDDGDDRPLARKLGDLADKYGPVFTFRLGLPLVLVVSSYEAVKDCFSTNDAIFSNRPAFLYGEYLGYSNAMLFLTKYGPYWRKNRKLVIQEVLSASRLEKLKHVRFGKIQTSIKSLYTRIDGNSSTINLTDWLEELNFGLIVKMIAGKNYESGKGDEQVERFRKAFKDFIILSMEFVLWDAFPIPLFKWVDFQGHVKAMKRTFKDIDSVFQNWLEEHVKKREKMEVNAQGNEQDFIDVVLSKMSNEYLDEGYSRDTVIKATVFSLVLDAADTVALHMNWGMALLINNQHALKKAQEEIDKKVGKERWVEESDIKDLVYLQAIVKEVLRLYPPGPLLVPHENVEDCVVSGYHIPKGTRLFANVMKLQRDPKLWSNPDKFDPERFFADDIDYRGQHYEFILFGSGRRSCPGMTYALQAEHLTIAHLIQGFNYKTPNDEPLDMKEGAGLTIRKVNPVEVTITARLAPELY
modifications: CYP82E5 P449L
effect of mutation on nicotine demethylase activity, in words [5]: inhibition of its nicotine demethylase activity
